Experimental data reported in patent US20050214830A1, “G protein-binding proteins and polynucleotides encoding the same” (Wyeth, priority 1998, published 2005).

B1: 5HT-R: 7-tm domain G protein-coupled serotonin receptor expressed as control in the apoptosis assay (protein, UniProt P08908 1-422, looked up)
5-hydroxytryptamine receptor …: MDVLSPGQGNNTTSPPAPFETGGNTTGISDVTVSYQVITSLLLGTLIFCAVLGNACVVAAIALERSLQNVANYLIGSLAVTDLMVSVLVLPMAALYQVLNKWTLGQVTCDLFIALDVLCCTSSILHLCAIALDRYWAITDPIDYVNKRTPRRAAALISLTWLIGFLISIPPMLGWRTPEDRSDPDACTISKDHGYTIYSTFGAFYIPLLLMLVLYGRIFRAARFRIRKTVKKVEKTGADTRHGASPAPQPKKSVNGESGSRNWRLGVESKAGGALCANGAVRQGDDGAALEVIEVHRVGNSKEHLPLPSEAGPTPCAPASFERKNERNAEAKRKMALARERKTVKTLGIIMGTFILCWLPFFIVALVLPFCESSCHMPTLLGAIINWLGYSNSLLNPVIYAYFNKDFQNAFKKIIKCKFCRQ
B2: BBP3: 221 amino acid BBP family protein (short form), SEQ ID NO:6; expressed from pFL12 (protein, listed as Homo sapiens)
chain: MAGGVRPLRGLRALCRVLLFLSQFCILSGGESTEIPPYVMKCPSNGLCSRLPADCIDCTTNFSCTYGKPVTFDCAVKPSVTCVDQDFKSQKNFIINMTCRFCWQLPETDYECTNSTSCMTVSCPRQRYPANCTVRDHVHCLGNRTFPKMLYCNWTGGYKWSTALALSITLGGFGADRFYLGQWREGLGKLFSFGGLGIWTLIDVLLIGVGYVGPADGSLYI
B3: BBP1: novel BAP binding protein, SEQ ID NO:2; two-transmembrane protein with 'DRF' motif; expressed from pOZ363 (protein, listed as Homo sapiens)
chain: MHILKGSPNVIPRAHGQKNTRRDGTGLYPMRGPFKNLALLPFSLPLLGGGGSGSGEKVSVSKMAAAWPSGPSAPEAVTARLVGVLWFVSVTTGPWGAVATSAGGEESLKCEDLKVGQYICKDPKINDATQEPVNCTNYTAHVSCFPAPNITCKDSSGNETHFTGNEVGFFKPISCRNVNGYSYKVAVALSLFLGWLGADRFYLGYPALGLLKFCTVGFCGIGSLIDFILISMQIVGPSDGSSYIIDYYGTRLTRLSITNETFRKTQLYP

Key:
[1] = tested on: Human Ntera2 (Nt2) stem cells; experiment: Staurosporine-induced nuclear condensation (apoptosis) in transfected Nt2 stem cells; format: cell-based
Source text: Mammalian expression plasmids. BBP cDNAs were modified by polymerase chain reaction (PCR) for expression from the vector pcDNA3.1 (Invitrogen Corp., Carlsbad, Calif.). BBP1 cDNA was amplified from pBBP1-fl (ATCC #98617); from the third potential translation start site to the translation stop codon, adding a 5′ EcoRI and a 3′ SaII site for cloning. The BBP1 cDNA contains three potential translation starts (codons 1, 30, and 63). The third start site was chosen for the described experiments because the first two potential initiating codons lack appropriate sequence context for efficient translation initiation (see Kozak, 1996), and based on similarities of the protein derived from the third start site with a putative BBP1 orthologue from Drosophila melanogaster (Genbank accession M941984). FIG. 1 depicts this minimal BBP1 translation product to optimize the alignment with the other BBP subtypes. The PCR primers were 5′-TGGTGAATTC GAAAGTGTCG GTCTCAACG ATG G [SEQ ID NO:36] (+strand) and 5′-CTTCGTCGAC TTATGGATATAATTGCGTTTTTC [SEQ ID NO:37] (−strand). The PCR product was digested with EcoRI+SaII and cloned into pcDNA3.1/EcoRI−XhoI to create pOZ363. BBP2 and BBP3 expression plasmids were similarily engineered. BBP2 was amplified from pOZ359 (ATCC #98851; using primers 5′-TTCCGAATTC AAGATGGTGCTAGGTGGTTGCCC [SEQ ID NO:38] (+strand) plus 5′-TTCCCTCGAG TTAGTAAACAGTGCACCAGTTGC [SEQ ID NO:39] (−strand). The PCR product was digested with EcoRI+XhoI and cloned into pcDNA3.1/EcoRI−XhoI to create pFL1 1. BBP3 was amplified from pOZ350 (ATCC #98712 using primers 5′-TTTTGAATTC GCAAG ATG GCG GGA GGG GTG CGC [SEQ ID NO:40] (+strand) plus 5′-TTGGCTCGAG CTAAATGTACAAAGAGCCATCTG [SEQ ID NO:41] (−strand). The PCR product was digested with EcoRI+XhoI and cloned into pcDNA3.1/EcoRI−XhoI to create pFL12. Mutation of the arginine codon within the ‘DRF’ motif of each BBP cDNA was performed using the QuickChange system (Stratagene Co., La Jolla, Calif.). Oligonucleotides were synthesized and purified by Genosys Biotechnologies, Inc. (The Woodlands, Tex.). The R138 codon of BBP1 in pOZ363 was changed to an alanine codon using the oligonucleotide 5′-GG TTGGGAGCAGATGCATTTTACCTTGGATACCC [SEQ ID NO: 42] and its exact reverse complement. The changed nucleotides are underlined. The R138 position of BBP1 in pOZ363 was changed to E using the oligonucleotide 5′-GG TTGGGAGCAGATGAATTTTACCTTGGATACCC [SEQ ID NO:43] and its exact reverse complement. The R167 position of BBP2 in pFL11 was changed to E using the oligonucleotide 5′-CTGGGATGTTTTGGTGTGGAT GM TTC TGT TTG GGA CAC AC [SEQ ID NO:44] and its exact reverse complement. […]

[2] = target: T1, rat Gαo (Rattus norvegicus, UniProt P59215); experiment: Yeast 2-hybrid (Y2H) bioassay for BBP interaction with Gαo; conditions: BBP intracellular loop as Gal4 DNA-binding domain fusion; C-terminal region of Gα as Gal4 activation domain fusion; compared to vector
T1 construct: fusion proteins containing C-terminal regions of Gα proteins in Y2H assays; expressed in transfected cells; host or cells: yeast strain CY770, plasmid pACT2
Source text: (§1) Yeast 2-hybrid assays. Y2H expression plasmids were constructed in the vectors pAS2 and pACT2 (Wade Harper et al., 1993). Strain CY770 (Ozenberger and Young, 1995) served as the host for Y2H assays. Sequences encoding the BBPI intracellular loop were amplified using the oligonucleotides 5′-CCTTCC ATGGAAGTGGCAGTCGCATTGTCT [SEQ ID NO:24] plus 5′-AACACTCGAG TCAAAACCCTACAGTGCAAAAC [SEQ ID NO:25]. This product, containing BBP1 codons 185 to 217, was digested with NcoI+XhoI and cloned into pAS2 cleaved with NcoI+SaII to generate pOZ339. Sequences encoding the BBP2 intracellular loop were amplified using the oligonucleotides 5′-CCATG GCCACTTTACTCTACTCCTTCTT [SEQ ID NO:26] plus 5′-CTCGAG TCA AAT CCC MG TCC TCC MG CG [SEQ ID NO:27]. […]
(§2) The various combinations of plasmids were transformed into strain CY770 by standard protocols. […] Cells were concentrated by centrifugation, counted and 10-fold serial dilutions made from 10^4 to 10^8 cells per ml in sterile water. […]
(§3) BBP1 contains a structural motif known to be a Gα protein activating sequence in the related G protein-coupled receptors. The intracellular sequences of each BBP were expressed as fusion proteins and assayed. for physical interactions with fusion proteins containing C-terminal regions of Gα proteins in Y2H assays.

[3] = target: T2, rat Gαs (Rattus norvegicus, UniProt P63095); experiment: Yeast 2-hybrid (Y2H) bioassay for BBP interaction with Gαs; conditions: BBP intracellular loop as Gal4 DNA-binding domain fusion; C-terminal region of Gα as Gal4 activation domain fusion; compared to vector
T2 construct: fusion proteins containing C-terminal regions of Gα proteins in Y2H assays; expressed in transfected cells; host or cells: yeast strain CY770, plasmid pACT2
Source text: as §1, §2, §3

[4] = target: T3, rat Gαi2 (Rattus norvegicus, UniProt P04897); experiment: Yeast 2-hybrid (Y2H) bioassay for BBP interaction with Gαi2; conditions: BBP intracellular loop as Gal4 DNA-binding domain fusion; C-terminal region of Gα as Gal4 activation domain fusion; compared to vector
T3 construct: fusion proteins containing C-terminal regions of Gα proteins in Y2H assays; expressed in transfected cells; host or cells: yeast strain CY770, plasmid pACT2
Source text: as §1, §2, §3

[5] = recombinant expression in Nt2 stem cells, 100 nM staurosporine for 3 hrs

T2 sequence (P63095 235-394 limits assumed): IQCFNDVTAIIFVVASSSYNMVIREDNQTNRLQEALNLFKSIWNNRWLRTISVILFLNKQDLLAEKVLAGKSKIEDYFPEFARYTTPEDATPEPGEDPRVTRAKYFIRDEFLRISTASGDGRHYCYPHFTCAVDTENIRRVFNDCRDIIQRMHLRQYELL
T1 sequence (P59215 213-354 limits assumed): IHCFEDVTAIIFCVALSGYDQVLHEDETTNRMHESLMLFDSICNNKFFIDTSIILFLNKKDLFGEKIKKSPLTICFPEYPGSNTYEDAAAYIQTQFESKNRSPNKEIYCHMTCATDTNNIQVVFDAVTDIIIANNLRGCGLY
T3 sequence (P04897 213-355 limits assumed): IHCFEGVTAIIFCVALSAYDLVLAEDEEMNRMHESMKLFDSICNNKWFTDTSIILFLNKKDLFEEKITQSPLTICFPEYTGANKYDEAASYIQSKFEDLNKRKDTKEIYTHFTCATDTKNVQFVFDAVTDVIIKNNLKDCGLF

Row | Molecule | suppression of staurosporine-induced nuclear condensation (antiapoptotic activity), in words [1, 5] | physical interaction with Gαo (Y2H growth response) [2] | physical interaction with Gαs (Y2H growth response) [3] | physical interaction with Gαi (Y2H growth response) [4] | cell death induced by staurosporine ([1]; Nt2 transfectants, 24 hr treatment with staurosporine (data not shown)) | apoptosis (percentage of condensed nuclei among EGFP+ transfectants) ([1]; recombinant expression in Nt2 stem cells, 100 nM staurosporine for 3 hrs, controls 45%)
1 | B1 | had no effect |  |  |  |  | 
2 | B2 | suppressed the induction of nuclear condensation to the same levels as BBP1 | none | strong response | exhibited interaction |  | 
3 | B3 |  | interacted with all three Gα proteins | interacted with all three Gα proteins | interacted with all three Gα proteins | blocked cell death | 13.5%
